The RNAGym collection of RNA variant scans (doi:10.1073/pnas.2313332121)
Variants at the floor of the assay were thinned out.

B1: TPR 5TU (parent)
chain: GGAUCUUCUCGAUCUAACAAAAAAGACAAAUCUGCCACAAAGCUUGAGAGCAUCUUCGGAUGCAGAGGCGGCAGCCUUCGGUGGCGCGAUAGCGCCAACGUUCUCAACUAUGACACGCAAAACGCGUGCUCCGUUGAAUGGAGUUUAUCAUG

Variants of: B1
Experiment: polymerase ribozyme fitness, log enrichment relative to wild type (log ratio); higher = more active; in vitro selection for triplet polymerase activity
Outline: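 Libraries of mutants in each subunit of a heterodimeric triplet polymerase ribozyme were generated by PCR and transcribed. In triplicate, each went through one in vitro selection round: annealing with biotinylated primer, partner subunit and triplets; frozen incubation at −7 °C; gel excision of extended constructs; streptavidin-bead capture; RT-PCR. Fitness, taken from Illumina sequencing of input and output libraries, is the logarithm of a genotype's enrichment over wild-type enrichment, averaged across replicates with inverse-variance weights. The logarithm is base 2, and genotypes needed ≥10 input reads and ≥1 read per output to be kept.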

Variant | polymerase ribozyme fitness (log ratio)
G58A C79U | -1.65
C95U C99A | -0.15
A89U C96U C118U A122G U139G | -0.0743
C14A A20U C85A U109G | ≤ -4.2
A24U G58A G88U | ≤ -4.2
C57U G59U C93U G136U | -2.96
A17U A20G C63A G92A A150U | -2.12
A19C A21C C76U C87A A110G A120G | ≤ -4.2
C14G U61G | -3.62
C35U C57G C85A G124A A138C U139A A142C U144G | ≤ -4.2
A49C A66U | ≤ -4.2
C8G G67C G92U C99U A107U U148A | ≤ -4.2
U44A A52G C85A C118U | ≤ -4.2
C57U C87G G88U C95G C116U C123A U134C | ≤ -4.2
A66C C76U | -3.47
A106G A113U U135G | ≤ -4.2
U6A A12G A17C G25C U55G A89G | -3.61
G50U U61A C93G C105U A107G | ≤ -4.2
A39U U53A G86U | -3.7
G11A C51U G81C G92A U151A | ≤ -4.2
C38U C63U A73G C118U A150G | -2.88

Variant | polymerase ribozyme fitness (log ratio)
A22C G84A C99A G152U | ≤ -4.2
A52G C57A C79U C85A C116U A122G | ≤ -4.2
A24U U56A G62C | -1.06
G86C G117A | -1.84
C72U C93U A97U A115U | -3.88
C54U C69G C85G | -3.9
G25C C75U A91G C99A G124U U134A | ≤ -4.2
U55A C57G A89U G136C | -3.69
C10U C54U G71U C85A C96G G133C U145G G152A | ≤ -4.2
G50C U90A | ≤ -4.2
C36G G80U C85U C87A U109G U139C A142G | ≤ -4.2
U6G C43A A52C C85A A98U A113C | ≤ -4.2
C87U C118U | -0.642
C79G C85A A138G U148A | ≤ -4.2
G58A U90A C125G | ≤ -4.2
A60G G67U G86A | -4.13
C96A A150C | -3.12
A17C G81U C85A C95U C105G | -1.64
C87U U102C A147C | -2.24
U56A C93U A147G | -1.96
C54G C76U U77C C87A G126U | ≤ -4.2

Variant | polymerase ribozyme fitness (log ratio)
A52C C57U | -1.24
A21U G84A G141A | 0.99
A121G G141U C149U | -3.72
A20U G50A C85U | -3.83
G62A G67A C72U C75G C93G C95U A120G | ≤ -4.2
A20G C57U C99A C108U | ≤ -4.2
C14G A39C C54G G71U C79G | ≤ -4.2
C57G A73U G83C G133U G143C U145C | ≤ -4.2
A120U U135C | -2.85
A16U A37C C63U C95U A119U A122U | -3.13
A12G G48A C54U C85G G117U | -2.26
A12G G58A G81C G84A G133C U144G | -1.22
G59A C85A A115G C123U | -2.65
G84A G92C | -3.25
A52C A73G G84U A115G C123G G124C C129A | ≤ -4.2
U53A C76G G92A A107C G124U C149A | ≤ -4.2
U6A G58C G94A | -0.942
A16U C38A C85A | -3.78
C35U A47U U148A A150U | ≤ -4.2
U55A A121C | -0.369
C125A U148C | -3.48

Variant | polymerase ribozyme fitness (log ratio)
U31C U55A A97G | 1.27
G34U A47G C57G G68A U102A | ≤ -4.2
A41C C76U G84U | -2.96
C14G U15G A24G G58C C87G C108A C114U G136A | ≤ -4.2
A26U U31C A39U U90C | ≤ -4.2
A37C A52G U82C C85G C95U C105U A142C A150G | ≤ -4.2
A24U C54A G58A G84A A120G G126U | -1.19
C27A G58A G84A | ≤ -4.2
A19G C123G | -1.22
A16C C38U G80U C96G A142C U148G | ≤ -4.2
U44A C116G | -4.19
A29C U56A G80U A121G | ≤ -4.2
A41U G92U | -1.05
U78G C99G C103A U109G | ≤ -4.2
G46A A52G G86U A91G A98U C114G | ≤ -4.2
U31G A52C A64U C75G U90C C99U U134G | ≤ -4.2
C14G A24G A41U G67A G152A | ≤ -4.2
A30U U53A | -3.18
A16U A22C A30U U55A C57A C76G G81U G84C | ≤ -4.2
C51U U53G C93G U127C | ≤ -4.2
A28U C35U A91U C132U | -3.89
